The supplement of paper PMC11908140

B1: library; numbered along this chain (parent)
chain: MRKPRAAVGSGHRKQAASQEGRQKHAKNNSQAKPSACDGLARQPEEVVLQASVSSYHLFRDVAEVTAFRGSLLSWYDQEKRDLPWRRRAEDEMDLDRRAYAVWVSEVMLQQTQVATVINYYTGWMQKWPTLQDLASASLEEVNQLWAGLGYYSRGRRLQEGARKVVEELGGHMPRTAETLQQLLPGVGRYTAGAIASIAFGQATGVVDGNVARVLCRVRAIGADPSSTLVSQQLWGLAQQLVDPARPGDFNQAAMELGATVCTPQRPLCSQCPVESLCRARQRVEQEQLLASGSLSGSPDVEECAPNTGQCHLCLPPSEPWDQTLGVVNFPRKASRKPPREESSATCVLEQPGALGAQILLVQRPNSGLLAGLWEFPSVTWEPSEQLQRKALLQELQRWAGPLPATHLRHLGEVVHTFSHIKLTYQVYGLALEGQTPVTTVPPGARWLTQEEFHTAAVSTAMKKVFRVYQGQQPGTCMGSKRSQVSSPCSRKKPRMGQQVLDNFFRSHISTDAHSLNSAAQ

Variants of: B1
Assay: 8OG:A repair function score (normalized; synonymous = 0, nonsense = -1) (normalized log-likelihood score); higher = more repair activity (WT-like)
Details: with 8OG:A DNA repair reporter (GFP) in HEK-293 MUTYH KO cells
How it was run: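 Lentiviral MUTYH cDNA NNN codon-scan libraries were expressed in MUTYH knockout HEK-293 cells with 10 pg/ml doxycycline, and the cells received an 8OG:A GFP repair reporter together with mCherry. At 72 h, viable mCherry+ cells went into GFP+ (repair) or GFP− bins, three replicates per tile, before tile amplicons were sequenced. A repair function score was then built from per-tile Rosace fitness scores, anchored on the synonymous and nonsense distributions. Synonymous medians sat at 0 and nonsense at -1, and variants under 300 counts per million at the start were left out.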
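Further: cells sorted at 72 h after reporter transfection.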

Variant	8OG:A repair function score
MRKPRAAVGSGHRKQAASQEGRQKHAKNNSQAKPSACDGLARQPEEVVLQASVSSYHLFRDVAEVTAFRGSLLSWYDQEKRDLPWRRRAEDEMDLDRRAYAVWVSEVMLQQTQVATVINYYTGWMQKWPTLQDLASASLEEVNQLWAGLGYYSRGRRLQEGARKVVEELGGHMPRTAETLQQLLPGVGRYIAGAIASIAFGQATGVVDGNVARVLCRVRAIGADPSSTLVSQQLWGLAQQLVDPARPGDFNQAAMELGATVCTPQRPLCSQCPVESLCRARQRVEQEQLLASGSLSGSPDVEECAPNTGQCHLCLPPSEPWDQTLGVVNFPRKASRKPPREESSATCVLEQPGALGAQILLVQRPNSGLLAGLWEFPSVTWEPSEQLQRKALLQELQRWAGPLPATHLRHLGEVVHTFSHIKLTYQVYGLALEGQTPVTTVPPGARWLTQEEFHTAAVSTAMKKVFRVYQGQQPGTCMGSKRSQVSSPCSRKKPRMGQQVLDNFFRSHISTDAHSLNSAAQ [T191I]	-0.0338
MRKPRAAVGSGHRKQAASQEGRQKHAKNNSQAKPSACDGLARQPEEVVLQASVSSYHLFRDVAEVTAFRGSLLSWYDQEKRDLPWRRRAEDEMDLDRRAYAVWVSEVMLQQTQVATVINYYTGWMQKWPTLQDLASASLEEVNQLWAGLGYYSRGRRLQEGARKVVEELGGHMPRTAETLQQLLPGVGRYKAGAIASIAFGQATGVVDGNVARVLCRVRAIGADPSSTLVSQQLWGLAQQLVDPARPGDFNQAAMELGATVCTPQRPLCSQCPVESLCRARQRVEQEQLLASGSLSGSPDVEECAPNTGQCHLCLPPSEPWDQTLGVVNFPRKASRKPPREESSATCVLEQPGALGAQILLVQRPNSGLLAGLWEFPSVTWEPSEQLQRKALLQELQRWAGPLPATHLRHLGEVVHTFSHIKLTYQVYGLALEGQTPVTTVPPGARWLTQEEFHTAAVSTAMKKVFRVYQGQQPGTCMGSKRSQVSSPCSRKKPRMGQQVLDNFFRSHISTDAHSLNSAAQ [T191K]	-1.26
MRKPRAAVGSGHRKQAASQEGRQKHAKNNSQAKPSACDGLARQPEEVVLQASVSSYHLFRDVAEVTAFRGSLLSWYDQEKRDLPWRRRAEDEMDLDRRAYAVWVSEVMLQQTQVATVINYYTGWMQKWPTLQDLASASLEEVNQLWAGLGYYSRGRRLQEGARKVVEELGGHMPRTAETLQQLLPGVGRYFAGAIASIAFGQATGVVDGNVARVLCRVRAIGADPSSTLVSQQLWGLAQQLVDPARPGDFNQAAMELGATVCTPQRPLCSQCPVESLCRARQRVEQEQLLASGSLSGSPDVEECAPNTGQCHLCLPPSEPWDQTLGVVNFPRKASRKPPREESSATCVLEQPGALGAQILLVQRPNSGLLAGLWEFPSVTWEPSEQLQRKALLQELQRWAGPLPATHLRHLGEVVHTFSHIKLTYQVYGLALEGQTPVTTVPPGARWLTQEEFHTAAVSTAMKKVFRVYQGQQPGTCMGSKRSQVSSPCSRKKPRMGQQVLDNFFRSHISTDAHSLNSAAQ [T191F]	-1.01
MRKPRAAVGSGHRKQAASQEGRQKHAKNNSQAKPSACDGLARQPEEVVLQASVSSYHLFRDVAEVTAFRGSLLSWYDQEKRDLPWRRRAEDEMDLDRRAYAVWVSEVMLQQTQVATVINYYTGWMQKWPTLQDLASASLEEVNQLWAGLGYYSRGRRLQEGARKVVEELGGHMPRTAETLQQLLPGVGRYMAGAIASIAFGQATGVVDGNVARVLCRVRAIGADPSSTLVSQQLWGLAQQLVDPARPGDFNQAAMELGATVCTPQRPLCSQCPVESLCRARQRVEQEQLLASGSLSGSPDVEECAPNTGQCHLCLPPSEPWDQTLGVVNFPRKASRKPPREESSATCVLEQPGALGAQILLVQRPNSGLLAGLWEFPSVTWEPSEQLQRKALLQELQRWAGPLPATHLRHLGEVVHTFSHIKLTYQVYGLALEGQTPVTTVPPGARWLTQEEFHTAAVSTAMKKVFRVYQGQQPGTCMGSKRSQVSSPCSRKKPRMGQQVLDNFFRSHISTDAHSLNSAAQ [T191M]	-0.127
MRKPRAAVGSGHRKQAASQEGRQKHAKNNSQAKPSACDGLARQPEEVVLQASVSSYHLFRDVAEVTAFRGSLLSWYDQEKRDLPWRRRAEDEMDLDRRAYAVWVSEVMLQQTQVATVINYYTGWMQKWPTLQDLASASLEEVNQLWAGLGYYSRGRRLQEGARKVVEELGGHMPRTAETLQQLLPGVGRYEAGAIASIAFGQATGVVDGNVARVLCRVRAIGADPSSTLVSQQLWGLAQQLVDPARPGDFNQAAMELGATVCTPQRPLCSQCPVESLCRARQRVEQEQLLASGSLSGSPDVEECAPNTGQCHLCLPPSEPWDQTLGVVNFPRKASRKPPREESSATCVLEQPGALGAQILLVQRPNSGLLAGLWEFPSVTWEPSEQLQRKALLQELQRWAGPLPATHLRHLGEVVHTFSHIKLTYQVYGLALEGQTPVTTVPPGARWLTQEEFHTAAVSTAMKKVFRVYQGQQPGTCMGSKRSQVSSPCSRKKPRMGQQVLDNFFRSHISTDAHSLNSAAQ [T191E]	-0.898
MRKPRAAVGSGHRKQAASQEGRQKHAKNNSQAKPSACDGLARQPEEVVLQASVSSYHLFRDVAEVTAFRGSLLSWYDQEKRDLPWRRRAEDEMDLDRRAYAVWVSEVMLQQTQVATVINYYTGWMQKWPTLQDLASASLEEVNQLWAGLGYYSRGRRLQEGARKVVEELGGHMPRTAETLQQLLPGVGRYDAGAIASIAFGQATGVVDGNVARVLCRVRAIGADPSSTLVSQQLWGLAQQLVDPARPGDFNQAAMELGATVCTPQRPLCSQCPVESLCRARQRVEQEQLLASGSLSGSPDVEECAPNTGQCHLCLPPSEPWDQTLGVVNFPRKASRKPPREESSATCVLEQPGALGAQILLVQRPNSGLLAGLWEFPSVTWEPSEQLQRKALLQELQRWAGPLPATHLRHLGEVVHTFSHIKLTYQVYGLALEGQTPVTTVPPGARWLTQEEFHTAAVSTAMKKVFRVYQGQQPGTCMGSKRSQVSSPCSRKKPRMGQQVLDNFFRSHISTDAHSLNSAAQ [T191D]	-1.01
MRKPRAAVGSGHRKQAASQEGRQKHAKNNSQAKPSACDGLARQPEEVVLQASVSSYHLFRDVAEVTAFRGSLLSWYDQEKRDLPWRRRAEDEMDLDRRAYAVWVSEVMLQQTQVATVINYYTGWMQKWPTLQDLASASLEEVNQLWAGLGYYSRGRRLQEGARKVVEELGGHMPRTAETLQQLLPGVGRYAAGAIASIAFGQATGVVDGNVARVLCRVRAIGADPSSTLVSQQLWGLAQQLVDPARPGDFNQAAMELGATVCTPQRPLCSQCPVESLCRARQRVEQEQLLASGSLSGSPDVEECAPNTGQCHLCLPPSEPWDQTLGVVNFPRKASRKPPREESSATCVLEQPGALGAQILLVQRPNSGLLAGLWEFPSVTWEPSEQLQRKALLQELQRWAGPLPATHLRHLGEVVHTFSHIKLTYQVYGLALEGQTPVTTVPPGARWLTQEEFHTAAVSTAMKKVFRVYQGQQPGTCMGSKRSQVSSPCSRKKPRMGQQVLDNFFRSHISTDAHSLNSAAQ [T191A]	-0.325
MRKPRAAVGSGHRKQAASQEGRQKHAKNNSQAKPSACDGLARQPEEVVLQASVSSYHLFRDVAEVTAFRGSLLSWYDQEKRDLPWRRRAEDEMDLDRRAYAVWVSEVMLQQTQVATVINYYTGWMQKWPTLQDLASASLEEVNQLWAGLGYYSRGRRLQEGARKVVEELGGHMPRTAETLQQLLPGVGRYNAGAIASIAFGQATGVVDGNVARVLCRVRAIGADPSSTLVSQQLWGLAQQLVDPARPGDFNQAAMELGATVCTPQRPLCSQCPVESLCRARQRVEQEQLLASGSLSGSPDVEECAPNTGQCHLCLPPSEPWDQTLGVVNFPRKASRKPPREESSATCVLEQPGALGAQILLVQRPNSGLLAGLWEFPSVTWEPSEQLQRKALLQELQRWAGPLPATHLRHLGEVVHTFSHIKLTYQVYGLALEGQTPVTTVPPGARWLTQEEFHTAAVSTAMKKVFRVYQGQQPGTCMGSKRSQVSSPCSRKKPRMGQQVLDNFFRSHISTDAHSLNSAAQ [T191N]	-0.68
MRKPRAAVGSGHRKQAASQEGRQKHAKNNSQAKPSACDGLARQPEEVVLQASVSSYHLFRDVAEVTAFRGSLLSWYDQEKRDLPWRRRAEDEMDLDRRAYAVWVSEVMLQQTQVATVINYYTGWMQKWPTLQDLASASLEEVNQLWAGLGYYSRGRRLQEGARKVVEELGGHMPRTAETLQQLLPGVGRYHAGAIASIAFGQATGVVDGNVARVLCRVRAIGADPSSTLVSQQLWGLAQQLVDPARPGDFNQAAMELGATVCTPQRPLCSQCPVESLCRARQRVEQEQLLASGSLSGSPDVEECAPNTGQCHLCLPPSEPWDQTLGVVNFPRKASRKPPREESSATCVLEQPGALGAQILLVQRPNSGLLAGLWEFPSVTWEPSEQLQRKALLQELQRWAGPLPATHLRHLGEVVHTFSHIKLTYQVYGLALEGQTPVTTVPPGARWLTQEEFHTAAVSTAMKKVFRVYQGQQPGTCMGSKRSQVSSPCSRKKPRMGQQVLDNFFRSHISTDAHSLNSAAQ [T191H]	-0.486
MRKPRAAVGSGHRKQAASQEGRQKHAKNNSQAKPSACDGLARQPEEVVLQASVSSYHLFRDVAEVTAFRGSLLSWYDQEKRDLPWRRRAEDEMDLDRRAYAVWVSEVMLQQTQVATVINYYTGWMQKWPTLQDLASASLEEVNQLWAGLGYYSRGRRLQEGARKVVEELGGHMPRTAETLQQLLPGVGRYGAGAIASIAFGQATGVVDGNVARVLCRVRAIGADPSSTLVSQQLWGLAQQLVDPARPGDFNQAAMELGATVCTPQRPLCSQCPVESLCRARQRVEQEQLLASGSLSGSPDVEECAPNTGQCHLCLPPSEPWDQTLGVVNFPRKASRKPPREESSATCVLEQPGALGAQILLVQRPNSGLLAGLWEFPSVTWEPSEQLQRKALLQELQRWAGPLPATHLRHLGEVVHTFSHIKLTYQVYGLALEGQTPVTTVPPGARWLTQEEFHTAAVSTAMKKVFRVYQGQQPGTCMGSKRSQVSSPCSRKKPRMGQQVLDNFFRSHISTDAHSLNSAAQ [T191G]	-0.428
MRKPRAAVGSGHRKQAASQEGRQKHAKNNSQAKPSACDGLARQPEEVVLQASVSSYHLFRDVAEVTAFRGSLLSWYDQEKRDLPWRRRAEDEMDLDRRAYAVWVSEVMLQQTQVATVINYYTGWMQKWPTLQDLASASLEEVNQLWAGLGYYSRGRRLQEGARKVVEELGGHMPRTAETLQQLLPGVGRYLAGAIASIAFGQATGVVDGNVARVLCRVRAIGADPSSTLVSQQLWGLAQQLVDPARPGDFNQAAMELGATVCTPQRPLCSQCPVESLCRARQRVEQEQLLASGSLSGSPDVEECAPNTGQCHLCLPPSEPWDQTLGVVNFPRKASRKPPREESSATCVLEQPGALGAQILLVQRPNSGLLAGLWEFPSVTWEPSEQLQRKALLQELQRWAGPLPATHLRHLGEVVHTFSHIKLTYQVYGLALEGQTPVTTVPPGARWLTQEEFHTAAVSTAMKKVFRVYQGQQPGTCMGSKRSQVSSPCSRKKPRMGQQVLDNFFRSHISTDAHSLNSAAQ [T191L]	-0.585
MRKPRAAVGSGHRKQAASQEGRQKHAKNNSQAKPSACDGLARQPEEVVLQASVSSYHLFRDVAEVTAFRGSLLSWYDQEKRDLPWRRRAEDEMDLDRRAYAVWVSEVMLQQTQVATVINYYTGWMQKWPTLQDLASASLEEVNQLWAGLGYYSRGRRLQEGARKVVEELGGHMPRTAETLQQLLPGVGRYCAGAIASIAFGQATGVVDGNVARVLCRVRAIGADPSSTLVSQQLWGLAQQLVDPARPGDFNQAAMELGATVCTPQRPLCSQCPVESLCRARQRVEQEQLLASGSLSGSPDVEECAPNTGQCHLCLPPSEPWDQTLGVVNFPRKASRKPPREESSATCVLEQPGALGAQILLVQRPNSGLLAGLWEFPSVTWEPSEQLQRKALLQELQRWAGPLPATHLRHLGEVVHTFSHIKLTYQVYGLALEGQTPVTTVPPGARWLTQEEFHTAAVSTAMKKVFRVYQGQQPGTCMGSKRSQVSSPCSRKKPRMGQQVLDNFFRSHISTDAHSLNSAAQ [T191C]	-0.351
